# Assay results: patent US10562935B2, “Stapled peptides and uses thereof” (London Health Sciences Centre Research Inc., priority 2015, dated 2020)
# Test: Circular dichroism (CD) spectroscopy of HABD2 peptides in Milli-Q water (Example 1)
# Format: physicochemical
# From the text: In addition, a large mean residue ellipticity indicates greater α-helical character. […] This was predicted to be the case, as there is a lack of contributing residues that might form a hydrophobic core, thereby helping to stabilize the secondary structure of the linear peptide. For this reason, bridges were introduced into the peptides. […] The differences in α-helicity induced by the bridges placed at different points within each peptide may be due to the differences in their primary sequences. Specifically, two amino acids (at the i and i+4 position) have to be replaced in order to form the lactam bridge. In compound 133, leucine was replaced at both the i and i+4 position; while in compound 136, glutamine was replaced at the i position and aspartic acid was replaced at i+4. Leucine and glutamine are proposed to be helix-stabilizing residues.
# A larger portion of the RHAMM protein was used as the reference for α-helical character of the truncated peptides. 7 kDa RHAMM (SEQ ID NO: 1) is a mini protein that is composed of 62 amino acids, which was derived from the C-terminus of the full-length RHAMM sequence. It contains both HABDs, and is predicted to have almost complete α-helix shape, similar to that of native full-length RHAMM.
# A peptide's α-helicity can be quantified using equations 1-3: fH=[([θ]obs222−[θ]c)/([θ]max222−[θ]c)] (Equation 1) [θ]c=2220+53T (Equation 2) [θ]max222=(−44000+250T)(1−k/N) (Equation 3) where fH is the ratio of the average number of helical hydrogen bonds divided by the total number of hydrogen bonds that can be found in a peptide, T is the temperature in degrees Celsius, N is the number of residues in the peptide and k is a constant of ellipticity when 100% of the structure is α-helical (3 for carboxyamidated peptides).
# Milli-Q water was chosen as the solvent in which all peptides would be dissolved for CD spectroscopy, as it is a UV invisible solvent, which is a requirement of the analytical technique, and it represents RHAMM's natural environment in the body. Luo and Baldwin [18] stated that when peptides are taken out of their native protein sequence, they usually show little to no helical formation in water alone. For this reason, TFE/H2O solutions are commonly used in studies to observe the α-helix characteristics, and may improve the helical nature of the peptides observed here. However, a helix-stabilizing solvent, such as TFE, would not be as contextually relevant, as there are no solvent stabilizing effects in the body. Thus use of TFE would tend to produce skewed results and not be representative of the peptide's natural behavior.
substance,measurement,setting,value
Ac-VSKLRSQLVKRKQN-NH2 [Compound 132],[θ]222/[θ]208 ratio of ellipticities,0.5 mM in Milli-Q water,0.27
same,fH fraction helicity,"0.5 mM in Milli-Q water, equations 1-3",0.13
same,α-helical character by CD (in words),Milli-Q water,minimal α-helical character
same,Molar ellipticity [θ]192,"λ = 192 nm, 0.5 mM in Milli-Q water",−433.48 deg cm^2 dmol^−1 residue^−1
same,Molar ellipticity [θ]208,"λ = 208 nm, 0.5 mM in Milli-Q water",−4944.38 deg cm^2 dmol^−1 residue^−1
same,Molar ellipticity [θ]222,"λ = 222 nm, 0.5 mM in Milli-Q water",−1339.76 deg cm^2 dmol^−1 residue^−1
